In patent US20240352117A1 (QYUNS THERAPEUTICS, published 2024):

Columns and labels:
[1] = target: T1, Human thymic stromal lymphopoietin (TSLP) (human, UniProt Q969D9 29-159); test: cell-based or functional assay
natural TSLP = test: cell-based or functional assay
Cynomolgus monkey TSLP = Cynomolgus monkey TSLP (cynomolgus monkey, UniProt A0A7N9CAT7 29-159); test: cell-based or functional assay
[2] = target: T1, Human thymic stromal lymphopoietin …; test: SPR, Biacore T200, 25 C, antibody captured on Protein A chip, human TSLP as analyte, 1:1 model, mean of three tests
Experimental: Biacore T200 was used to detect the affinity of QX008N (HZD8G2-57) binding to human TSLP. All processes were performed at 25° C. A commercial Protein A chip was used to immobilize an appropriate amount of antibody through the capture method so that Rmax was around 50RU and the capture flow rate was 10 μl/min. The antigen was diluted by gradient, the flow rate of the instrument was switch to 30 μl/min, and the antigen flowed through the reference channel and the fixed antibody channel in order from low to high concentration, with the antigen flowing through the buffer as a negative control. After each binding and dissociation was completed, the chip was regenerated with glycine at pH 1.5. The 1:1 binding model in Kinetics option was selected for fitting using the analysis software that comes with the instrument, and the binding rate constant kₐ, the dissociation rate constant kd and the equilibrium dissociation constant KD value of the antibody were calculated.
The detection method for known antibodies was the same as that for QX008N.

Cynomolgus monkey TSLP, sequence (A0A7N9CAT7 entry or part of it): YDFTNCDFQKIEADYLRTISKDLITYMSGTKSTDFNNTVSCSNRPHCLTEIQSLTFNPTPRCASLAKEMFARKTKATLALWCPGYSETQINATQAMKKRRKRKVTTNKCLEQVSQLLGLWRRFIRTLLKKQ

IC50 of inhibiting STAT5 phosphorylation in SW756-STAT5-Luciferase reporter gene cells induced by human TSLP [1] [ng/mL]	IC50 of inhibiting the release of TARC (CCL17) from PBMCs induced by human TSLP [1] [ng/mL]	IC50 of inhibiting the release of TARC (CCL17) from human whole blood induced by human TSLP [1] [ng/mL]	IC50 of inhibiting STAT5 phosphorylation in SW756-STAT5-Luciferase reporter gene cells induced by natural TSLP (natural TSLP) [ng/mL]	IC50 of inhibiting STAT5 phosphorylation in SW756-STAT5-Luciferase reporter gene cells induced by Cynomolgus monkey TSLP (Cynomolgus monkey TSLP) [ng/mL]	Kd [2] [nM]	koff [2] [s⁻¹]	kon [2] [M⁻¹ s⁻¹]	Binder
0.837	77.1	0.839	0.462	0.889	0.0175	2.99e-05	1.74e+06	QX008N (HZD8G2-57) (antibody, human IgG1, kappa, V domains shown, Humanized rabbit antibody from clone 8G2; Expressed in ExpiCHO-S cells and purified with Protein A; also called humanized 8G2) VH: EVQLVESGGGLVQPGGSLRLSCAASGFSLSSYYMSWVRQAPGKGLEWVGFISYGGSAYHATWAQGRFTISKDNSKNTLYLQMNSLRAEDTAVYYCAREFRSMTYGAEWGIWGQGTLVTVSS VL: AYQMTQSPSSVSASVGDRVTITCQASESIYDTLAWYQQKPGKAPKLLIYSASSLASGVPSRFSGSGSGTDFTLTISSLQPEDFATYYCQQGYTMPDVDKNPFGGGTKVEIKR
				1.88				Tezepelumab (antibody, V domains shown) VH: QMQLVESGGGVVQPGRSLRLSCAASGFTFRTYGMHWVRQAPGKGLEWVAVIWYDGSNKHYADSVKGRFTITRDNSKNTLNLQMNSLRAEDTAVYYCARAPQWELVHEAFDIWGQGTMVTVSS VL: SYVLTQPPSVSVAPGQTARITCGGNNLGSKSVHWYQQKPGQAPVLVVYDDSDRPSWIPERFSGSNSGNTATLTISRGEAGDEADYYCQVWDSSSDHVVFGGGTKLTVLG
